Experimental data reported in patent US20050002935A1.
Values belong to the binder of their own block, whether it stands above or below them.

Biological target: B7-H3 receptor on human CD4+ T cells (human)
Test: cell-based or functional assay

GM-CSF level reduced relative to GFP controls (multiplex ELISA, 72 h): 65% | IFN-γ level reduced relative to GFP controls (multiplex ELISA, 72 h): 85% | IL-10 level reduced relative to GFP controls (multiplex ELISA, 72 h): 81% | TNF-α level reduced relative to GFP controls (multiplex ELISA, 72 h): 69%
B1: human B7-H3 VC (expressed on CHO.HLA-DR2 transfectants) (ligand)
chain: LEVQVPEDPVVALVGTDATLCCSFSPEPGFSLAQLNLIWQLTDTKQLVHSFAEGQDQGSAYANRTALFPDLLAQGNASLRLQRVRVADEGSFTCFVSIRDFGSAAVSLQVAAPYSKPSMTLEPNKDLRPGDTVTITCSSYRGYPEAEVFWQDGQGVPLTGNVTTSQMANEQGLFDVHSVLRVVLGANGTYSCLVRNPVLQQDAHGSVTITGQPMTFPPEALWVTVGLSVCLIALLVALAFVCWRKIKQSCEEENAGAEDQDGEGEGSKTALQPLKHSDSKEDDGQEIA

GM-CSF level reduced relative to GFP controls (multiplex ELISA, 72 h): 65% | IFN-γ level reduced relative to GFP controls (multiplex ELISA, 72 h): 85% | IL-10 level reduced relative to GFP controls (multiplex ELISA, 72 h): 81% | TNF-α level reduced relative to GFP controls (multiplex ELISA, 72 h): 69%
B2: human B7-H3 VCVC (expressed on CHO.HLA-DR2 transfectants) (ligand)
chain: LEVQVPEDPVVALVGTDATLCCSFSPEPGFSLAQLNLIWQLTDTKQLVHSFAEGQDQGSAYANRTALFPDLLAQGNASLRLQRVRVADEGSFTCFVSIRDFGSAAVSLQVAAPYSKPSMTLEPNKDLRPGDTVTITCSSYQGYPEAEVFWQDGQGVPLTGNVTTSQMANEQGLFDVHSILRVVLGANGTYSCLVRNPVLQQDAHSSVTITPQRSPTGAVEVQVPEDPVVALVGTDATLRCSFSPEPGFSLAQLNLIWQLTDTKQLVHSFTEGRDQGSAYANRTALFPDLLAQGNASLRLQRVRVADEGSFTCFVSIRDFGSAAVSLQVAAPYSKPSMTLEPNKDLRPGDTVTITCSSYRGYPEAEVFWQDGQGVPLTGNVTTSQMANEQGLFDVHSVLRVVLGANGTYSCLVRNPVLQQDAHGSVTITGQPMTFPPEALWVTVGLSVCLIALLVALAFVCWRKIKQSCEEENAGAEDQDGEGEGSKTALQPLKHSDSKEDDGQEIA
